Like-named read-outs stand apart in the source and are kept apart here. One block for each molecule: values may come before it.
What was measured:
[1] = PK (TMDD) model parameters and Ctrans, two-compartment TMDD model, QSS approximation; format: in vivo, humans; conditions: for Ctrans: Equation (13); for Ttot = Ksyn/Kdeg: total target concentration
Procedure: For this kind of PK model, Ctrans is determined according to Equation (2), specified by Equation (13).
where VM and KM are calculated from TMDD model parameters according to Equations (11) and (12).
PK parameters listed in Table S were obtained based on the protocols disclosed in Stein & Peletier, 2018 and Rodriguez-Vera et al., 2015, with modification to be consistent with the current model description listed in Equations (7A)-(7D).

[2] = cited from earlier work; for Kdeg: degradation of free target; for Cl / Q / Vc / Vp: in vivo; for Kint: internalization of drug-target complex; for Ksyn: target synthesis
[3] = PK parameters and Ctrans, two-compartment model with mixed linear and nonlinear M-M clearance pathways (four antibodies); format: in vivo, human; conditions: calculated by Equation (2), sqrt(KM×VM/Cl)
Procedure: For this kind of PK model, Ctrans is determined according to Equation (2): […]
PK parameters listed in Table 3, i.e., Vc, Cl, Vp, Q, VM and KM, were obtained based on the protocols disclosed in Frey et al., 2010; Kloft et al., 2004; Ma et al., 2009; and Okamoto et al., 2021, with modification to be consistent with the current model description provided here.

[4] = cited from earlier work; for KM / Q / VM / Vc / Vp: in vivo; for Cl: linear clearance
[5] = Minimal dose to keep plasma concentration Cp(t) above Ctrans for Tdur, two-compartment model solved with deSolve (tocilizumab); design: species or system humans
Procedure: This example requires that Ttrans for the desired therapeutic dose be greater than the pre-determined duration time point post-administration, which is denoted herein as Tdur.
PK model parameters for tocilizumab such as Vc, Cl, Vp, Q, KM and VM are provided in Example 3. Ctrans is determined to be 8.22 μg/mL or 8.22 mg/L; Tur is pre-determined as 28 days, which is equal to or less than Ttrans.

[6] = PK parameters and Ctrans, two-compartment model with nonlinear M-M clearance only (cetuximab, alemtuzumab); format: in vivo, human; conditions: calculated by Equation (3)
Procedure: For this kind of PK model, Ctrans is determined according to Equation (3): […]
PK parameters listed in Table 1, i.e., Vc, Vp, Q, VM and KM, were obtained based on the protocols disclosed in Dirks et al., 2008 and Mould et al., 2007, with modification to be consistent with the current model description provided herein.

[7] = cited from earlier work
[8] = PK parameters for rats and Ctrans, two-compartment model with nonlinear only clearance pathway (phenytoin); format: in vivo; conditions: rats
Procedure: Its PK in rats is described by a two-compartment model with nonlinear only clearance described by M-M equation. For this kind of PK model, […] is determined according to Equation (3): PK parameters listed in Table 2, […] and KM, were obtained based on the protocols disclosed in Della Paschoa et al., 1998, with modification to be consistent with the current model description provided herein.

[9] = rats; cited from earlier work
[10] = PK model parameters, Ctrans and therapeutic dose to reach Ctrans at Ttrans, one-compartment model with mixed linear and nonlinear clearance (evolocumab); format: in vivo, humans
Procedure: Ttrans to reach the transitional concentration Ctrans for any dose level Cmax is determined according to Equation(S). When Ttrans and Ctrans are known, Cmax and the therapeutic dose can be determined as follows.
According to Equation (2), Ctrans is determined to be 115.18 nM or 17.28 mg/L assuming the molecular weight of 150 kDa or 150 kg/mol for a typical antibody. Ttrans is pre-determined to be 28 days. Ttrans and Ctrans can be used to determine Cmax based on Equation(S). Cmax can be obtained from Equation (5) via any root solver as provided in MATLAB™ and RStudio.
PK parameters listed in Table 6 were obtained based on the protocols disclosed in Kuchimanchi et al., 2018, with modification to be consistent with the current model description listed in Equations (2) and (4).

[11] = in vivo; cited from earlier work

Molecule: Nimotuzumab: antibody of Table 5; TMDD model under QSS condition (text b119 says efalizumab)
Ctrans [1]: 142.3 (μg/mL) | KM = KQSS ([1]; in vivo): 6.96 (mg/L) | VM = KsynVc ([1]; in vivo): 2.045 (mg/hour) | Ttot = Ksyn/Kdeg [1]: 0.26 (μg/mL) | Kdeg [2]: 5.5 (/hour) | Cl [2]: 0.000703 (L/hour) ^ | Q [2]: 0.00322 (L/hour) | Vc [2]: 1.43 L | Vp [2]: 18.5 L | Kint [2]: 0.148 (/hour) | KQSS = (Kint + Koff)/Kon ([2]; quasi-steady-state constant): 6.96 (mg/L) | Ksyn [2]: 1.43 (μg/mL/hour)

Molecule: Panitumumab: antibody; two-compartment model with mixed linear and nonlinear clearance
Ctrans [3]: 3.98 µg/mL | KM [4]: 0.401 µg/mL | Q [4]: 0.389 L/day | VM [4]: 10.6 mg/day | Vc [4]: 3.66 L | Vp [4]: 2.58 L | Cl [4]: 0.269 L/day

Molecule: Tocilizumab: antibody; two-compartment model with mixed linear and nonlinear clearance
Ctrans [3]: 8.22 µg/mL | Ctrans [5]: 8.22 mg/L | KM [4]: 2.7 µg/mL | Q [4]: 0.2 L/day | VM [4]: 7.5 mg/day | Vc [4]: 3.5 L | Vp [4]: 2.9 L | Cl [4]: 0.3 L/day

Molecule: Sibrotuzumab: antibody; two-compartment model with mixed linear and nonlinear clearance
Ctrans [3]: 0.579 µg/mL | KM [4]: 0.219 µg/mL | Q [4]: 0.902 L/day | VM [4]: 0.811 mg/day | Vc [4]: 4.13 L | Vp [4]: 3.19 L | Cl [4]: 0.530 L/day

Molecule: Alemtuzumab: antibody; PK described by two-compartment model with nonlinear only clearance
Ctrans [6]: 338 (μg/L) | KM ([7]; M-M equation coefficient): 338 (μg/L) | VM ([7]; M-M equation coefficient): 1020 (μg/hour) | Vc ([7]; central compartment distribution volume): 11.3 (L) | Q ([7]; exchange rate between compartments): 1.05 (L/hour) | Vp ([7]; peripheral compartment distribution volume): 41.5 (L)

Q = K12 × Vc [8]: 79.98 mL/min | Vp = Q/K21 [8]: 1333 mL | Ctrans ([8]; calculated by Equation (3)): 5.9 µg/mL
Molecule: O=C1NC(=O)C(c2ccccc2)(c2ccccc2)N1 [Phenytoin]
K12 [9]: 0.197 min⁻¹ | K21 [9]: 0.060 min⁻¹ | KM [9]: 5.9 µg/mL | VM [9]: 272 µg/min | Vc [9]: 406 mL

Molecule: Vedolizumab: antibody; two-compartment model with mixed linear and nonlinear clearance
Ctrans [3]: 0.429 µg/mL | KM [4]: 0.851 µg/mL | Q [4]: 0.161 L/day | VM [4]: 0.238 mg/day | Vc [4]: 3.16 L | Vp [4]: 1.84 L | Cl [4]: 1.10 L/day

Molecule: Mavrilimumab: antibody; TMDD model under the QSS condition
Ctrans [1]: 4.96 (nM) ^ | VM = KsynVc ([1]; in vivo): 6.72 (nmol/Day) | Km ([1]; in vivo, read-out: KM = KQSS): 0.0011 µM | KQSS = (Kint + Koff)/Kon ([1]; quasi-steady-state constant): 1.1 (nM) ^ | Ttot = Ksyn/Kdeg [1]: 1.09 (nM) ^ | Kdeg [2]: 2.2 (/day) | Koff ([2]; drug-target binding reverse rate constant): 10 (/day) | Cl [2]: 0.3 (L/day) ^ | Q [2]: 1.7 (L/day) ^ | Vc [2]: 2.8 L | Vp [2]: 5.6 L | Kint [2]: 2.2 (/day) | Ksyn [2]: 2.4 (nM/day)^

B1: Evolocumab: antibody; one-compartment model with mixed linear and nonlinear clearance pathways (antibody, chains of the INN, looked up, V domains shown)
VH: EVQLVQSGAEVKKPGASVKVSCKASGYTLTSYGISWVRQAPGQGLEWMGWVSFYNGNTNYAQKLQGRGTMTTDPSTSTAYMELRSLRSDDTAVYYCARGYGMDVWGQGTTVTVSS
VL: ESALTQPASVSGSPGQSITISCTGTSSDVGGYNSVSWYQQHPGKAPKLMIYEVSNRPSGVSNRFSGSKSGNTASLTISGLQAEDEADYYCNSYTSTSMVFGGGTKLTVL
Ctrans ([10]; Equation (2)): 115.18 nM | Ctrans ([10]; assuming molecular weight of 150 kDa): 17.28 mg/L | Cl [11]: 0.105 L/day | Km [11]: 0.0273 µM | VM [11]: 51.02 nmol/day | Vc [11]: 5.18 L

Reference: patent publication US20260120837A1, “METHODS OF DOSING THERAPEUTIC AGENTS” (Fusion Pharmaceuticals Inc., priority 2022, published 2026)
